US11406723B2, “Radiotherapeutic and companion imaging agents to target MC1R” (H. LEE MOFFITT CANCER CENTER AND RESEARCH INSTITUTE, INC., priority 2015, dated 2022)
Where “and” joins values, the source holds several entries; their conditions need not be identical. Equal entries are not always repeated. Where a SMILES comes first, the peptide text is derived from it. Side-chain parts run from the residue outwards. [ ]: non-standard residue; d: D form. The star is where a group is joined. 1‑Phenylbutyric acid = 1-phenylbutyric acid N-terminal cap; DOTA = O=C(O)CN1CCN(CC(=O)O)CCN(CC(=O)*)CCN(CC(=O)O)CC1; Butanoyl(4-Ph) = O=C(CCCc1ccccc1)*; Ahx = NCCCCCC(=O)O

Tests used:
A375/MC1R tumors = experiment: Efficacy in SCID mice bearing A375/MC1R tumors; type: in vivo; details: after injection; control groups
Description: Mice were observed daily for health and twice per week weighed and tumor volumes measured by caliper. When the tumors reach 2000 mm^3 (experimental endpoint), animals were euthanized. Euthanizations prior to 2000 mm^3 were due to clinical endpoints, i.e. predominantly due to tumor ulceration.
1.9-3.3 μCi of MC1RL-DOTA-^225Ac, 1.8-2.7 μCi of scrambled peptide-DOTA-^225Ac, an excess of the cold agent (MC1RL-DOTA-^139La) and saline were injected to the SCID mice bearing A375/MC1R tumors injection (n=10 per group, volume of the tumors: 57-266 mm3). Mice were observed daily for health and twice per week weighed and tumor volumes measured by caliper. When the tumors reach 2000 mm^3 (experimental endpoint), animals were euthanized. Euthanizations prior to 2000 mm^3 were due to clinical endpoints, i.e. predominantly due to tumor ulceration.
These 2 mice are currently tumor free 150 days post injection. The other 7 treated mice were euthanized at an average of 86 days due to tumor ulceration without progression. While the median time-to-endpoint (tumor >2000 mm^3) of control mice treated with saline, MC1RL-DOTA-^139La (cold surrogate) and scrambled peptide-DOTA-^225Ac were 22, 24 and 32 days respectively after injection.

MC1R (Hek293/MC1R cells) [1] = target: T1, MC1R (Hek293/MC1R cells) (Homo sapiens, UniProt Q01726); experiment: Saturation TRF binding assay with europium-chelated compounds; details: Eu chelate; 20x MC1RL-DOTA used for blocking; two repeats; read-out: Kd, specific saturation binding
T1 construct: expressed in transfected cells; host or cells: Hek293
T1 sequence (Q01726 whole entry): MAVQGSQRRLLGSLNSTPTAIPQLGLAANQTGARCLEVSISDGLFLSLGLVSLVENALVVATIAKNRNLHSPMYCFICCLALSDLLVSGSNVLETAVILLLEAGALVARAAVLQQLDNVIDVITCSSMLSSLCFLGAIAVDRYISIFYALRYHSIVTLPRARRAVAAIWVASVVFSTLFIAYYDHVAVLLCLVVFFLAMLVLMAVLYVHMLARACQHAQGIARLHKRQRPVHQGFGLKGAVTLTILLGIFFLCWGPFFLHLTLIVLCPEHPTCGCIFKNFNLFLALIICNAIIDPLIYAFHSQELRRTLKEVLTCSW
Description: The binding sequence is 1-Phenylbutyric acid-His(D)Phe-Arg-Trp-Gly-Lys(Ahx-DOTA)-CONH2. Eu is chelated into the conjugated DOTA for lanthanide-based binding assays but ^225Ac, ^68Ga, or ^111In can also be chelated. […] 20×MC1Rl-DOTA was used for blocking. […] Data is the result of two repeats.
The binding sequence is 1-Phenylbutyric acid-His(D)Phe-Arg-Trp-Gly-Lys(DOTA)-CONH2. Eu is chelated into the conjugated DOTA for lanthanide-based binding assays but ^225AC, ^68Ga, or ^111In can also be chelated. […] 20×MC1Rl-DOTA was used for blocking. […] Data is the result of two repeats.
The binding sequence is 1-Phenylbutyric acid-His(D)Phe-Arg-Trp-Gly-Lys(D-di-Glu-DOTA)-CONH2. Eu is chelated into the conjugated DOTA for lanthanide-based binding assays but ^225Ac, ^68Ga, or ^111In can also be chelated. […] 20×MC1Rl-DOTA was used for blocking. […] Data is the result of two repeats.
Time-resolved fluorescence (TRF) competition binding assays were performed to determine binding affinities of these DOTA conjugates (FIG. 2). The TRF method takes advantage of the long fluorescence lifetime of the lanthanide Europium and can detect less than one attomole in a multiwell plate sample. Hek293/MC1R cells (Hek293 cells engineered to over-express MC1R) were used for the binding assays. […]

MC1R (Hek293/MC1R cells) [2] = target: T1, MC1R (Hek293/MC1R cells); experiment: Time-resolved fluorescence (TRF) competition binding assay; details: competitive binding, read-out: binding affinity to MC1R (Ki)
Description: FIG. 2 is a graph from representative competitive binding assays of the ^139La- and ^69Ga-DOTA-MC1RL peptides.
Time-resolved fluorescence (TRF) competition binding assays were performed to determine binding affinities of these DOTA conjugates (FIG. 2). The TRF method takes advantage of the long fluorescence lifetime of the lanthanide Europium and can detect less than one attomole in a multiwell plate sample. Hek293/MC1R cells (Hek293 cells engineered to over-express MC1R) were used for the binding assays. Saturation TRF binding assays were performed using versions of the compounds with chelated europium to determine specific and non-specific binding (FIG. 17-20).

[3] = MTD study of the radiotherapeutic agent; type: in vivo, mice
Description: FIGS. 6A, 6B and 6C are graphs from a MTD study of ^225Ac-DOTA-MC1RL radio-therapeutic agent.
(Table 3). […] Blood urea nitrogen (BUN) (FIG. 6B) and blood creatinine (FIG. 6C) levels, and pathology of a range of tissues including heart, lungs, brain, kidney and liver were all unremarkable.

[4] = test system: A375/MC1R and A375 xenograft tumors; experiment: In vivo tumor targeting, bilateral A375/MC1R and A375 xenografts, fluorescence imaging; design: species or system nude mice; details: 4 h post-injection, i.v., P≤0.05, n=3
Description: FIG. 3 contains data from in vivo targeting of a MC1R specific probe. Left mice: Representative images of normalized fluorescence intensity maps overlaid on mice bearing xenograft tumors. […] A blocking experiment (right mouse) was performed by coinjection of 0.25 μg unlabeled NDP-α-MSH and 3 nmol/kg of the MC1RL-800 probe. […] Right mouse: Representative tomographic image of a mouse bearing a B16F10 xenograft tumor at 4 h after injection of 3 nmol/kg of the MC1RL-800 imaging probe using the FMT 2500 LX quantitative fluorescence tomography in vivo imaging system (PerkinElmer).
Previously, to investigate tumor targeting of the infrared conjugate of the ligand in vivo, bilateral subcutaneous xenograft tumors with A375/MC1R engineered cells in the right flank and A375 parental cells with relatively low MC1R expression in the left flank of nude mice and MC1RL-800 probe was injected intravenously and fluorescence accumulation was monitored over time. […] In vivo blocking studies were performed to determine that probe retention in the tumor was due to specific binding (FIG. 3, left mice).

[5] = in vivo fluorescence imaging and mathematical model; cited from earlier work
MC1R = MC1R (Homo sapiens, UniProt Q01726); details: read-out: binding affinity (Ki); cited from earlier work
MC1R, sequence (Q01726 whole entry): as above

## N=C(N)NCCC[C@H](NC(=O)[C@@H](Cc1ccccc1)NC(=O)[C@H](Cc1c[nH]cn1)NC(=O)CCCc1ccccc1)C(=O)N[C@@H](Cc1c[nH]c2ccccc12)C(=O)NCC(=O)N[C@@H](CCCCNC(=O)CCCCCNC(=O)CN1CCN(CC(=O)O)CCN(CC(=O)O)CCN(CC(=O)O)CC1)C(N)=O (139La complex, metal not drawn) [^139La-DOTA-MC1RL] ({Butanoyl(4-Ph)}-H[dF]RWGK([Ahx-DOTA])-NH2)
A375/MC1R tumors
  median time-to-endpoint (tumor >2000 mm^3): 24 days

## N=C(N)NCCC[C@H](NC(=O)[C@@H](Cc1ccccc1)NC(=O)[C@H](Cc1c[nH]cn1)NC(=O)CCCc1ccccc1)C(=O)N[C@@H](Cc1c[nH]c2ccccc12)C(=O)NCC(=O)N[C@@H](CCCCNC(=O)CCCCCNC(=O)CN1CCN(CC(=O)O)CCN(CC(=O)O)CCN(CC(=O)O)CC1)C(N)=O [1-Phenylbutyric acid-His(D)Phe-Arg-Trp-Gly-Lys(Ahx-DOTA)-CONH2] ({Butanoyl(4-Ph)}-H[dF]RWGK([Ahx-DOTA])-NH2)
MC1R (Hek293/MC1R cells) [1]
  Kd: 0.88 nM

## N=C(N)NCCC[C@H](NC(=O)[C@@H](Cc1ccccc1)NC(=O)[C@H](Cc1c[nH]cn1)NC(=O)CCCc1ccccc1)C(=O)N[C@@H](Cc1c[nH]c2ccccc12)C(=O)NCC(=O)N[C@@H](CCCCNC(=O)CCCCCNC(=O)CN1CCN(CC(=O)O)CCN(CC(=O)O)CCN(CC(=O)O)CC1)C(N)=O [DOTA-MC1RL] ({Butanoyl(4-Ph)}-H[dF]RWGK([Ahx-DOTA])-NH2)
MC1R (Hek293/MC1R cells) [2]
  Ki: 0.24 nM and 0.3 nM

## N=C(N)NCCC[C@H](NC(=O)[C@@H](Cc1ccccc1)NC(=O)[C@H](Cc1c[nH]cn1)NC(=O)CCCc1ccccc1)C(=O)N[C@@H](Cc1c[nH]c2ccccc12)C(=O)NCC(=O)N[C@@H](CCCCNC(=O)CCCCCNC(=O)CN1CCN(CC(=O)O)CCN(CC(=O)O)CCN(CC(=O)O)CC1)C(N)=O [^225Ac-DOTA-MC1RL, metal not drawn] ({Butanoyl(4-Ph)}-H[dF]RWGK([Ahx-DOTA])-NH2)
[3]; MTD study
  overall tolerability: tolerated extremely well
[3]; range of radioactivities
  behavior in MTD study: no signs of altered behavior
  blood creatinine level: unremarkable
  blood urea nitrogen (BUN) level: unremarkable
  pathology of tissues including heart, lungs, brain, kidney and liver: unremarkable
[3]; range of radioactivities, weight gain decreased with increased activity
  weight gain in MTD study: All mice gained weight

## MC1RL-800: near-infrared fluorescent (NIRF) dye conjugated analog of MC1RL, imaging probe ({1‑Phenylbutyric acid}-H[dF]RWGK-NH2; also: NIR dye 800 conjugate, site not given here)
[4]
  normalized fluorescence signal of low-MC1R A375 tumors compared to A375/MC1R tumors: significantly lower normalized fluorescence signal
[5]
  clearance: rapid renal clearance
  crossing of the blood brain barrier (BBB): does not cross the BBB
MC1R
  Ki: 0.4 ± 0.1 nM
